Patent publication US20250277025A1

Target: human CLDN18.2 expressed on cells (human)
Assay: cell-based or functional assay

Human IgG1 isotype antibody
ADCC (PBMC) on KATOIII CLDN18.2 cells, LDH: max (% cytotoxity) (run A): 0.3% | ADCC (PBMC) on KATOIII CLDN18.2 cells, LDH: max (% cytotoxity) (run B): -5.51% | ADCC (PBMC) on KATOIII CLDN18.2 cells, LDH: max (% cytotoxity) (run C): -7.64% | ADCC (PBMC) on NCI-N87 CLDN18.2 cells, LDH: max (% cytotoxity) (run A): -6.73% | ADCC (PBMC) on NCI-N87 CLDN18.2 cells, LDH: max (% cytotoxity) (run B): -11.7% | ADCC (PBMC) on NCI-N87 CLDN18.2 cells, LDH: max (% cytotoxity) (run C): -9.22%
